Results as given in the RNAGym collection of RNA variant scans (doi:10.1073/pnas.2313332121).

B1: TPR t1 (parent)
chain: GACCAAUCUGCCCUCAGAGCUCGAGAACAUCUUCGGAUGCAGAGGAGGCAGGCUUCGGUGGCGCGAUAGCGCCAACGUCCUCAACCUCCAAUGCAUCCCACCACAUGAUGAUGCCUGAAGAGCCUUGGUUUUUUG

Variants of: B1
Assay: polymerase ribozyme fitness, log enrichment relative to wild type (log ratio); higher = more active; in vitro selection for triplet polymerase activity
Outline: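 Fitness measures genotype enrichment against wild-type enrichment on a logarithmic scale, with inverse-variance-weighted averaging of replicates. The logarithm is base 2, and genotypes were kept only with ≥10 input reads and ≥1 read per output in Illumina sequencing. The sequenced libraries came from one triplicate in vitro selection round, including frozen incubation at −7 °C, of PCR-built, transcribed mutant libraries of each subunit of a heterodimeric triplet polymerase ribozyme.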

First: C8G G60U C102U
Second: C8U C22G G45A G47C A100U
The “polymerase ribozyme fitness (log ratio)” value of the first is higher: -0.641 for the first, -4.96 for the second.

Compared with C8G C15G, C8A G93C is higher in “polymerase ribozyme fitness (log ratio)” value: -1.24 for the first, 0.003 for the second.

Compared with C8U G17A, C8G U38C A50U C115A is higher in “polymerase ribozyme fitness (log ratio)” value: -2.57 for the first, 0.783 for the second.

First: C8A A75U C85A A90C G93A
Second: C8G C12G G60U G93A
The “polymerase ribozyme fitness (log ratio)” value of the first is lower: -3.24 for the first, -0.276 for the second.

Compared with C8U G44A C56A C72A U81C A111C, C8U C12U C64A C123U is lower in “polymerase ribozyme fitness (log ratio)” value: -3.76 for the first, -4.54 for the second.

C8A C72A U81G G120U and C8G C114U C123A are within 0.2 log units of each other in “polymerase ribozyme fitness (log ratio)” value: -0.73 for the first, -0.55 for the second.

Going from C8G U9C C56G to C8G G60A C104U, the “polymerase ribozyme fitness (log ratio)” value falls from 0.364 to -0.296.

Compared with C8A C40G, C8G C15U A46C C72U G93A G110A is lower in “polymerase ribozyme fitness (log ratio)” value: 0.0349 for the first, -2.41 for the second.

Compared with C8A G19A U87C A91C G113C G127C, C8G U9G C12G C49G A91U is lower in “polymerase ribozyme fitness (log ratio)” value: -2.18 for the first, -2.4 for the second.

Going from C8G U14C G45A A84G to C8G C11U C82A U112A, the “polymerase ribozyme fitness (log ratio)” value rises from -0.446 to 0.802.

First: C8U C40G G63U A100G
Second: C8A C34A C98G U126G
The “polymerase ribozyme fitness (log ratio)” value of the first is lower: -5.92 for the first, -4.07 for the second.

First: C8A U78C G113C
Second: C8A A24U G61U C115U G117A
The “polymerase ribozyme fitness (log ratio)” value of the first is higher: -0.875 for the first, -7.42 for the second.

First: C8A U9G C94G
Second: C8U C22A A26G C28U C34A G63U C104A U112C G135A
The “polymerase ribozyme fitness (log ratio)” value of the first is higher: -0.653 for the first, -2.92 for the second.

Going from C8U A24G G36A G44U to C8A G60A, the “polymerase ribozyme fitness (log ratio)” value rises from -2.87 to -0.104.

First: C8G U9G
Second: C8G C13A A91G U106G G117U
The “polymerase ribozyme fitness (log ratio)” value of the first is higher: 0.256 for the first, -3.24 for the second.

First: C8G G47U C123U
Second: C8U C64A U78C
The “polymerase ribozyme fitness (log ratio)” value of the first is higher: 0.786 for the first, -6.51 for the second.

Going from C8G C11U G63U C124A to C8G C15U C49A G93C, the “polymerase ribozyme fitness (log ratio)” value falls from 1.09 to -1.27.

Going from C8G A50C C79U A90U to C8U A50U C94A, the “polymerase ribozyme fitness (log ratio)” value rises from -1.96 to -1.52.

Going from C8G U14A U55G C73G C97A to C8G C56G, the “polymerase ribozyme fitness (log ratio)” value rises from -4.31 to 0.255.

First: C8U G48A A50G
Second: C8U G19C G42U A91G C123U
The “polymerase ribozyme fitness (log ratio)” value of the first is lower: -1.52 for the first, -0.955 for the second.

Going from C8U A24G G44U U106C to C8A G61U A83C A100C, the “polymerase ribozyme fitness (log ratio)” value rises from -1.81 to -0.341.

First: C8A A41U C49G G61A U81C A100U
Second: C8A G47C U133G
The “polymerase ribozyme fitness (log ratio)” value of the first is lower: -8.29 for the first, -1.25 for the second.

Going from C8A C40U A103C to C8G G19U G48A A50U U54G U96A C114A, the “polymerase ribozyme fitness (log ratio)” value rises from -3.75 to 0.218.

First: C8G C101A
Second: C8G C20U A46U G52C A91G
The “polymerase ribozyme fitness (log ratio)” value of the first is higher: -0.236 for the first, -4.53 for the second.

Going from C8U C82U U116G G117A to C8A U32A A90G, the “polymerase ribozyme fitness (log ratio)” value falls from 0.198 to -4.24.

Compared with C8A G63C U78C U81A C101A U109G, C8G C115A is higher in “polymerase ribozyme fitness (log ratio)” value: -5.76 for the first, 0.863 for the second.

First: C8G C89A C94G
Second: C8A A37G A100C
The “polymerase ribozyme fitness (log ratio)” value of the first is lower: -2.14 for the first, -0.161 for the second.

Compared with C8U G52U C86A, C8G A68G is lower in “polymerase ribozyme fitness (log ratio)” value: -1.28 for the first, -2.09 for the second.

Compared with C8A A29G C115U U126G, C8U C104G U106A C124G is lower in “polymerase ribozyme fitness (log ratio)” value: -2.36 for the first, -3.63 for the second.

First: C8G U21A U38G C76U C88A U112G A121C
Second: C8G C20A C82U A100C U112C
The “polymerase ribozyme fitness (log ratio)” value of the first is lower: -4.14 for the first, -3.16 for the second.

Compared with C8G C31A A50C G113U, C8G A16G C56G C72A A100C is higher in “polymerase ribozyme fitness (log ratio)” value: -5.53 for the first, -1.46 for the second.

First: C8G A18U A111G G128A U132C
Second: C8G G57A U81A G120A
The “polymerase ribozyme fitness (log ratio)” value of the first is lower: -2.59 for the first, 0.685 for the second.

Compared with C8G G117C, C8G G117U is lower in “polymerase ribozyme fitness (log ratio)” value: -0.943 for the first, -1.44 for the second.

First: C8A U78C
Second: C8G C13U C40G C124G
The “polymerase ribozyme fitness (log ratio)” value of the first is lower: 0.0167 for the first, 0.821 for the second.

Going from C8U C12U C70G C94A to C8A C72U, the “polymerase ribozyme fitness (log ratio)” value rises from -3.02 to 0.071.

Compared with C8U G19C C56A C115A, C8G A43U C88G G110U G120U is lower in “polymerase ribozyme fitness (log ratio)” value: -2.03 for the first, -4.09 for the second.

Going from C8G A46C U81A C88U G113A to C8U A100C G117A, the “polymerase ribozyme fitness (log ratio)” value falls from -1.64 to -1.87.

Compared with C8A C80G C82G C88A C114U, C8G C73U C86U is higher in “polymerase ribozyme fitness (log ratio)” value: -6.78 for the first, 0.186 for the second.

Compared with C8U G58A G110A, C8U C20U A37U A43U is lower in “polymerase ribozyme fitness (log ratio)” value: -1.27 for the first, -2.77 for the second.

Going from C8G G35C U131A to C8G A18C A37C G120C, the “polymerase ribozyme fitness (log ratio)” value rises from -5.09 to 0.00671.

Compared with C8G A43U C53U U106A, C8G C11U U116C G120U is higher in “polymerase ribozyme fitness (log ratio)” value: -1.57 for the first, 0.747 for the second.

For C8U A29U C70U, the “polymerase ribozyme fitness (log ratio)” value was -2.36.
